Values quoted from earlier work as cited in PMC2483503.

How the values were obtained:
Test in all cases: ITC
[1] = target: FAK proline-rich peptide (PXXP) (Homo sapiens) (UniProt Q05397)
[2] = target: FAK peptide (Homo sapiens) (UniProt Q05397)
[3] = target: FAK peptide FAK peptide (proline-rich and pY motifs) (Homo sapiens) (UniProt Q05397)
[4] = target: CD3 zeta ITAM C-terminal pY peptide ITAM C-terminal pY peptide (Homo sapiens) (UniProt P20963)
[5] = target: CD3 zeta ITAM N-terminal pY peptide ITAM N-terminal pY peptide (Homo sapiens) (UniProt P20963)
[6] = target: CD3 zeta ITAM bisphosphopeptide ITAM bisphosphopeptide (Homo sapiens) (UniProt P20963)

ZAP70 SH2 domains, sequence (P43403 1-259): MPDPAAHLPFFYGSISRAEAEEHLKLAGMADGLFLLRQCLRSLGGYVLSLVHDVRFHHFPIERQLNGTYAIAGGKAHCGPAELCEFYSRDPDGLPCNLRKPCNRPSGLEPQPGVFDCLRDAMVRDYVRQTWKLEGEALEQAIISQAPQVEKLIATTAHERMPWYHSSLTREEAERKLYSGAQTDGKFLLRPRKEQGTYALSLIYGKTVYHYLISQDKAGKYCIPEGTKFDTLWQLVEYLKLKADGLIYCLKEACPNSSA
Fyn SH3-SH2, sequence (P06241 82-246): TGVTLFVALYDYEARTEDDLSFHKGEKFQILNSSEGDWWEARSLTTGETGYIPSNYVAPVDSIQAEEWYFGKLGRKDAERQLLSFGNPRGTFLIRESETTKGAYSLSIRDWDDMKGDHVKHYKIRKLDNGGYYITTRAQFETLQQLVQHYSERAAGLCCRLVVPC
FAK peptide FAK peptide (proline-rich and pY motifs) (Homo sapiens), sequence (Q05397 368-403): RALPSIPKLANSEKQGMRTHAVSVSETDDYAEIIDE
Fyn SH3, sequence (P06241 79-146): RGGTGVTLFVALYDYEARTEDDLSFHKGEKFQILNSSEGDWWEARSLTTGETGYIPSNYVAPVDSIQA
FAK peptide (Homo sapiens), sequence (Q05397 2-1052): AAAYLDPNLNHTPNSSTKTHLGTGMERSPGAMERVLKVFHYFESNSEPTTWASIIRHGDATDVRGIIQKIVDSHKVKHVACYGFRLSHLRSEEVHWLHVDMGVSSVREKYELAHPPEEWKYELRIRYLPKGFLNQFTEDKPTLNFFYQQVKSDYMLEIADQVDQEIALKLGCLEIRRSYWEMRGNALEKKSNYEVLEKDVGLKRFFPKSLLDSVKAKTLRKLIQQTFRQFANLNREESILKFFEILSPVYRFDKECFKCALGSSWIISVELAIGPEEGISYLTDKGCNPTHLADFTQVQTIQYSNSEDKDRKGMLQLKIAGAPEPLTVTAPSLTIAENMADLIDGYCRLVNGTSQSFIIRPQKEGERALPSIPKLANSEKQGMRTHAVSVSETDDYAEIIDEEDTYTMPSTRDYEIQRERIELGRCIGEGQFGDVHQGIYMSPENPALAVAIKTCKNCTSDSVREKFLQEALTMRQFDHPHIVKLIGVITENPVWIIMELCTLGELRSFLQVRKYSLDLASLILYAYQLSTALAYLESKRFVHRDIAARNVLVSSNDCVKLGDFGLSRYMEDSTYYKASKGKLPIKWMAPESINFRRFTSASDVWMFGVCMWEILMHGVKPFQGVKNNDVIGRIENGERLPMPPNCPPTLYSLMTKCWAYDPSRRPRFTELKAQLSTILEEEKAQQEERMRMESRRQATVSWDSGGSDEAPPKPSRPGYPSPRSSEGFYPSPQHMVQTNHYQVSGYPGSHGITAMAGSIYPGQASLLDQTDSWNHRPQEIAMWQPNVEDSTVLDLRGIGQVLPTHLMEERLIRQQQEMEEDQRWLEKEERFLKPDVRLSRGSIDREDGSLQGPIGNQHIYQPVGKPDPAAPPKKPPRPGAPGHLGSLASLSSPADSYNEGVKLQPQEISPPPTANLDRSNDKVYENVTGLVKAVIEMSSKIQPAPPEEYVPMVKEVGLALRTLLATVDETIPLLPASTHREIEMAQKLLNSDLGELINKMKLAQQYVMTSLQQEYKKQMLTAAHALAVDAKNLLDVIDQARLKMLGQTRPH

Fyn SH3 (from UniProt P06241)
Kd [1]: 62 µM

Fyn SH3-SH2 (from UniProt P06241)
Kd [2]: 0.19 µM | Kd [3]: 0.19 µM

ZAP70 SH2 domains (from UniProt P43403)
Kd [4]: 333 µM | Kd [5]: 142 µM | Kd [6]: 0.032 µM
